This is an account of results in PMC3485183.

The target of test [1] is HA-tagged RCAN1-3KR mutant (human). As to the kind of experiment: co-IP; HEK293 cells co-transfected with Flag-calcineurin and HA-tagged wild-type RCAN1 or RCAN1-3KR; IP with HA antibody, blot with Flag antibody.
A further test deals with Flag-calcineurin (UniProt Q08209).
Test [2] concerns the target HA-tagged wild-type calcineurin A (UniProt Q08209). Description: co-IP; HEK293 cells co-transfected with HA-calcineurin and Myc-RCAN1, without or with T7-NEDD8, NEDD8-ΔGG, or after NEDD8 or control siRNA (60 nM); lysis in 1% NP40 buffer; IP with HA antibody, blot with Myc antibody.

Chain of Myc-RCAN1 (P53805 whole entry): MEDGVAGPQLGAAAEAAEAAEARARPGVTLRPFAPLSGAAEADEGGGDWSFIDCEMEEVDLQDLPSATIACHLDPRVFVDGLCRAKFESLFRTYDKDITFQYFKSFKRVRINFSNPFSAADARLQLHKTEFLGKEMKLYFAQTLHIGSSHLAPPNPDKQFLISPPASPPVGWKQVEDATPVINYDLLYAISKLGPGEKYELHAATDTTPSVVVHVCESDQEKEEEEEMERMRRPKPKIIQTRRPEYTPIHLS

On to “Flag-calcineurin (from UniProt Q08209 1-521) (enzyme)”, for which, in test [1], the reduction of binding against wild-type RCAN1 stood at 40%.
With “HA-tagged human wild-type RCAN1 (RCAN1-1S) (natural protein)”, the NFAT-luciferase reporter activity in HEK293 cells treated with ionomycin, inhibition against reporter alone in the test with Flag-calcineurin is more than 60%.
With Myc-RCAN1 (natural protein), the increase of binding with co-expressed wild-type NEDD8, against no NEDD8 in test [2] was determined as 30%.
